Experiments:
Assay in all cases: holdup assay
Design in all cases: key: below the threshold = too weak to quantify, mostly under pKd 3.1 to 4
Conditions in all cases: plain residues with an end cap or a label only (N-terminal biotin on a linker: ado-ado)
AHNAK1, Q09666 = target: AHNAK1, Q09666
ARHGEF12, Q9NZN5-2 = target: ARHGEF12, Q9NZN5-2
CARD11, Q9BXL7 = target: T1, CARD11, Q9BXL7
T1 sequence (Q9BXL7 662-765, limits assumed, looked up): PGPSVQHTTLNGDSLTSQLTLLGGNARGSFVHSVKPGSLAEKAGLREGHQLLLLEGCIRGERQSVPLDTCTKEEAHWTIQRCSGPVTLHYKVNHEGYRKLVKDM

DLG2_3, Q15700 = target: DLG2_3, Q15700
HTRA3, P83110 = target: T2, HTRA3, P83110
T2 sequence (P83110 354-453, limits assumed, looked up): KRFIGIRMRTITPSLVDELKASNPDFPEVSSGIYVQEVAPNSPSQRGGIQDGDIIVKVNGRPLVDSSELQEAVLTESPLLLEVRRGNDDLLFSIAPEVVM

HTRA4, P83105 = target: T3, HTRA4, P83105
T3 sequence (P83105 378-476, limits assumed, looked up): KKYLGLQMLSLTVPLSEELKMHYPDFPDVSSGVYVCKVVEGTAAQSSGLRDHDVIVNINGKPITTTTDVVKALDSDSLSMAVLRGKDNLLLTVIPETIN

IL16_1, Q14005 = target: IL16_1, Q14005
IL16_1, Q14005, sequence (Q14005 210-306): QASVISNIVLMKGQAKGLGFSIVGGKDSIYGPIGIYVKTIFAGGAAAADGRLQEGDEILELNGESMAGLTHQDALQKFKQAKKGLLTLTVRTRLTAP

Inadl_3, Q8NI35 = target: Inadl_3, Q8NI35
Inadl_3, Q8NI35, sequence (Q8NI35 359-469): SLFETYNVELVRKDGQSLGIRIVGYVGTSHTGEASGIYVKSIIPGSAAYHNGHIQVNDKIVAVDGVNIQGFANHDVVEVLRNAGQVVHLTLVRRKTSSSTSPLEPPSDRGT

Inadl_4, Q8NI35 = target: Inadl_4, Q8NI35
Inadl_4, Q8NI35, sequence (Q8NI35 547-651): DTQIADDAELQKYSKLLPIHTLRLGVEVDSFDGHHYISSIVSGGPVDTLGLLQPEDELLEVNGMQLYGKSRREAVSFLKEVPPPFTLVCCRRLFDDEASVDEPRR

Inadl_9, Q8NI35 = target: Inadl_9, Q8NI35
Inadl_9, Q8NI35, sequence (Q8NI35 1530-1615): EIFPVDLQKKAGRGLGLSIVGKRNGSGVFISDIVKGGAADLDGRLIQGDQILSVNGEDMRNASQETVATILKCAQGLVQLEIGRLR

LNX2_3, Q8N448 = target: T4, LNX2_3, Q8N448
T4 sequence (Q8N448 463-564, limits assumed, looked up): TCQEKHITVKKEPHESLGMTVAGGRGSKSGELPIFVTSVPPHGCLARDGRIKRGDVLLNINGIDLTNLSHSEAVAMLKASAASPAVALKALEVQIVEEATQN

MAGI2_5, Q86UL8 = target: MAGI2_5, Q86UL8
MAGI2_5, Q86UL8, sequence (Q86UL8 915-1017): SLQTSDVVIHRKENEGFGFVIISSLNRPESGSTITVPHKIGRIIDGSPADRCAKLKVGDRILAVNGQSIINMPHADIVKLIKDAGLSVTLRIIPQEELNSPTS

MAST1, Q9Y2H9 = target: MAST1, Q9Y2H9
MAST1, Q9Y2H9, sequence (Q9Y2H9 962-1065): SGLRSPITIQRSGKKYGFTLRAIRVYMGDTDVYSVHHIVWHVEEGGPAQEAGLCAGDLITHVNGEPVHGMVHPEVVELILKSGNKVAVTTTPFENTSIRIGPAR

MPP7, Q5T2T1 = target: T5, MPP7, Q5T2T1
T5 sequence (Q5T2T1 134-230, limits assumed, looked up): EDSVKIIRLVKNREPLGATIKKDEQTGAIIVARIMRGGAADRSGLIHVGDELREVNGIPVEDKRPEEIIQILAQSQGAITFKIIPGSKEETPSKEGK

NHERF2_2, Q15599 = target: NHERF2_2, Q15599
NHERF2_2, Q15599, sequence (Q15599 142-238): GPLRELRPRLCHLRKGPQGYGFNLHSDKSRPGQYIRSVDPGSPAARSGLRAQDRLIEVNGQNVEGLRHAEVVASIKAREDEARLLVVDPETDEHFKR

NHERF4_1, Q86UT5-2 = target: NHERF4_1, Q86UT5-2
NHERF4_1, Q86UT5-2, sequence (Q86UT5 other isoform, or with tags, fused parts or gaps): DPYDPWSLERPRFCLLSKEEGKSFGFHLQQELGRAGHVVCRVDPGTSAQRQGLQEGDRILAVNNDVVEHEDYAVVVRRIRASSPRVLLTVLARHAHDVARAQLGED

NOS1, P29475 = target: NOS1, P29475
NOS1, P29475, sequence (P29475 9-101): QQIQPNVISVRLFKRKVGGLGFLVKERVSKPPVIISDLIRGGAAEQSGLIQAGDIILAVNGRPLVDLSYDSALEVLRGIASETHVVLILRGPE

PARD3B_1, Q8TEW8 = target: T6, PARD3B_1, Q8TEW8
T6 sequence (Q8TEW8 196-299, limits assumed, looked up): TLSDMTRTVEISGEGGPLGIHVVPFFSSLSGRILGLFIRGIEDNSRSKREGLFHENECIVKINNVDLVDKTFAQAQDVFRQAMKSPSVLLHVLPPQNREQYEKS

PARD3_3, Q8TEW0 = target: PARD3_3, Q8TEW0
PARD3_3, Q8TEW0, sequence (Q8TEW0 582-685): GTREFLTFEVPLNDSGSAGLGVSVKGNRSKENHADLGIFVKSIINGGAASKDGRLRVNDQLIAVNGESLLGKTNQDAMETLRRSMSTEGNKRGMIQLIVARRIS

PCLO, Q9Y6V0 = target: T7, PCLO, Q9Y6V0
T7 sequence (Q9Y6V0 4491-4600, limits assumed, looked up): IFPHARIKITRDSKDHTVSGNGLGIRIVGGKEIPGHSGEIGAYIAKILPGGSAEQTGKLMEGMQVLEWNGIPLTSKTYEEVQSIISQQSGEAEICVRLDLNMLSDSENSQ

SCRIB_2, Q14160 = target: SCRIB_2, Q14160
SCRIB_2, Q14160, sequence (Q14160 857-960): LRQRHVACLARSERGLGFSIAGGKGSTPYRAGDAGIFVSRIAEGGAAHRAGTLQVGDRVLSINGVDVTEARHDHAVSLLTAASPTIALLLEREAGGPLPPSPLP

SNTA1, Q13424 = target: T8, SNTA1, Q13424
T8 sequence (Q13424 82-180, limits assumed, looked up): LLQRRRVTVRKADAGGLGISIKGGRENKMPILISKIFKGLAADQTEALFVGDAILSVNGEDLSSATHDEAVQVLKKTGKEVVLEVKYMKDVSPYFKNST

SNTG1, Q9NSN8 = target: T9, SNTG1, Q9NSN8
T9 sequence (Q9NSN8 52-150, limits assumed, looked up): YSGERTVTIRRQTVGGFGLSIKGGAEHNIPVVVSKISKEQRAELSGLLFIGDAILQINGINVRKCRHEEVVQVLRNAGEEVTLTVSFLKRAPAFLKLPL

SNTG2, Q9NY99 = target: T10, SNTG2, Q9NY99
T10 sequence (Q9NY99 68-166, limits assumed, looked up): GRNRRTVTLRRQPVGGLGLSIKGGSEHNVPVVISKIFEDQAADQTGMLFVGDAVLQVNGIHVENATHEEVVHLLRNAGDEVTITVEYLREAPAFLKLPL

SYNJ2BP, P57105 = target: T11, SYNJ2BP, P57105
T11 sequence (P57105 8-110, limits assumed, looked up): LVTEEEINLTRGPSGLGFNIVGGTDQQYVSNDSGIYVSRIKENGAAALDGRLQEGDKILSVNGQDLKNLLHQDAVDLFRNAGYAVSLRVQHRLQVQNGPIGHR

TJP1_2, Q07157 = target: TJP1_2, Q07157
TJP1_2, Q07157, sequence (Q07157 181-274): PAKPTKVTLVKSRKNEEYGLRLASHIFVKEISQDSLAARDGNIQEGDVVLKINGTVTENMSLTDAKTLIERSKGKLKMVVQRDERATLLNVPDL

AHNAK1, Q09666, sequence (Q09666 4-100): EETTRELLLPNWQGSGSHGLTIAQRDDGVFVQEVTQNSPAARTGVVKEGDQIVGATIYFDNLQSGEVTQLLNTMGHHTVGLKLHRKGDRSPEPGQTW
ARHGEF12, Q9NZN5-2, sequence (Q9NZN5 other isoform, or with tags, fused parts or gaps): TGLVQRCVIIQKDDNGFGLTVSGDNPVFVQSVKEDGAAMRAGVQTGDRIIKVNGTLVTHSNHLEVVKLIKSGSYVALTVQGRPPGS

B1: NPSR1, Q6W5P4 (peptide)
chain: MQILSKPEFI
pKd (AHNAK1, Q09666): below the threshold
pKd (ARHGEF12, Q9NZN5-2): below the threshold
pKd (CARD11, Q9BXL7): below the threshold
pKd (DLG2_3, Q15700): 3.53
pKd (HTRA3, P83110): 4.61
pKd (HTRA4, P83105): 4.38
pKd (IL16_1, Q14005): below the threshold
pKd (Inadl_3, Q8NI35): below the threshold
pKd (Inadl_4, Q8NI35): below the threshold
pKd (Inadl_9, Q8NI35): 3.64
pKd (LNX2_3, Q8N448): below the threshold
pKd (MAGI2_5, Q86UL8): below the threshold
pKd (MAST1, Q9Y2H9): 3.68
pKd (MPP7, Q5T2T1): below the threshold
pKd (NHERF2_2, Q15599): below the threshold
pKd (NHERF4_1, Q86UT5-2): 3.62
pKd (NOS1, P29475): 3.84
pKd (PARD3B_1, Q8TEW8): 4.09
pKd (PARD3_3, Q8TEW0): 3.98
pKd (PCLO, Q9Y6V0): below the threshold
pKd (SCRIB_2, Q14160): below the threshold
pKd (SNTA1, Q13424): below the threshold
pKd (SNTG1, Q9NSN8): below the threshold
pKd (SNTG2, Q9NY99): below the threshold
pKd (SYNJ2BP, P57105): below the threshold
pKd (TJP1_2, Q07157): below the threshold

B2: FCHSD2, O94868 (peptide)
chain: KIEDVEITLV
pKd (AHNAK1, Q09666): below the threshold
pKd (ARHGEF12, Q9NZN5-2): 3.85
pKd (CARD11, Q9BXL7): below the threshold
pKd (DLG2_3, Q15700): below the threshold
pKd (HTRA3, P83110): 3.71
pKd (HTRA4, P83105): 4.54
pKd (IL16_1, Q14005): 3.48
pKd (Inadl_3, Q8NI35): 4.43
pKd (Inadl_4, Q8NI35): below the threshold
pKd (Inadl_9, Q8NI35): 3.68
pKd (LNX2_3, Q8N448): below the threshold
pKd (MAGI2_5, Q86UL8): 5.47
pKd (MAST1, Q9Y2H9): 4.16
pKd (MPP7, Q5T2T1): below the threshold
pKd (NHERF2_2, Q15599): 3.86
pKd (NHERF4_1, Q86UT5-2): 3.73
pKd (NOS1, P29475): 3.8
pKd (PARD3B_1, Q8TEW8): 3.91
pKd (PARD3_3, Q8TEW0): 3.99
pKd (PCLO, Q9Y6V0): below the threshold
pKd (SCRIB_2, Q14160): below the threshold
pKd (SNTA1, Q13424): 3.76
pKd (SNTG1, Q9NSN8): 4.14
pKd (SNTG2, Q9NY99): 3.58
pKd (SYNJ2BP, P57105): 3.82
pKd (TJP1_2, Q07157): below the threshold

B3: POLR1D, P0DPB6 (peptide)
chain: QKASRNESTF
pKd (AHNAK1, Q09666): below the threshold
pKd (ARHGEF12, Q9NZN5-2): below the threshold
pKd (CARD11, Q9BXL7): below the threshold
pKd (DLG2_3, Q15700): 3.82
pKd (HTRA3, P83110): below the threshold
pKd (HTRA4, P83105): below the threshold
pKd (IL16_1, Q14005): below the threshold
pKd (Inadl_3, Q8NI35): below the threshold
pKd (Inadl_4, Q8NI35): below the threshold
pKd (Inadl_9, Q8NI35): below the threshold
pKd (LNX2_3, Q8N448): below the threshold
pKd (MAGI2_5, Q86UL8): below the threshold
pKd (MAST1, Q9Y2H9): 4.08
pKd (MPP7, Q5T2T1): below the threshold
pKd (NHERF2_2, Q15599): 3.7
pKd (NHERF4_1, Q86UT5-2): below the threshold
pKd (NOS1, P29475): below the threshold
pKd (PARD3B_1, Q8TEW8): 4.05
pKd (PARD3_3, Q8TEW0): below the threshold
pKd (PCLO, Q9Y6V0): below the threshold
pKd (SCRIB_2, Q14160): below the threshold
pKd (SNTA1, Q13424): below the threshold
pKd (SNTG1, Q9NSN8): below the threshold
pKd (SNTG2, Q9NY99): below the threshold
pKd (SYNJ2BP, P57105): below the threshold
pKd (TJP1_2, Q07157): below the threshold

B4: TRPM1, Q7Z4N2 (peptide)
chain: KEKASTETEC
pKd (AHNAK1, Q09666): below the threshold
pKd (ARHGEF12, Q9NZN5-2): 3.58
pKd (CARD11, Q9BXL7): below the threshold
pKd (DLG2_3, Q15700): below the threshold
pKd (HTRA3, P83110): 3.58
pKd (HTRA4, P83105): below the threshold
pKd (IL16_1, Q14005): below the threshold
pKd (Inadl_3, Q8NI35): below the threshold
pKd (Inadl_4, Q8NI35): below the threshold
pKd (Inadl_9, Q8NI35): below the threshold
pKd (LNX2_3, Q8N448): below the threshold
pKd (MAGI2_5, Q86UL8): below the threshold
pKd (MAST1, Q9Y2H9): 4.09
pKd (MPP7, Q5T2T1): below the threshold
pKd (NHERF2_2, Q15599): below the threshold
pKd (NHERF4_1, Q86UT5-2): 3.66
pKd (NOS1, P29475): below the threshold
pKd (PARD3B_1, Q8TEW8): 3.97
pKd (PARD3_3, Q8TEW0): below the threshold
pKd (PCLO, Q9Y6V0): below the threshold
pKd (SCRIB_2, Q14160): 3.52
pKd (SNTA1, Q13424): 3.77
pKd (SNTG1, Q9NSN8): below the threshold
pKd (SNTG2, Q9NY99): below the threshold
pKd (SYNJ2BP, P57105): 3.83
pKd (TJP1_2, Q07157): below the threshold

Source: article PMC9482650, “Quantitative fragmentomics allow affinity mapping of interactomes” (Nature Communications, 2022)
